From patent US6127332

T1: interferon receptors on Daudi cells and A549 cells (Homo sapiens (Human)) (UniProt P17181)
T1 sequence 1: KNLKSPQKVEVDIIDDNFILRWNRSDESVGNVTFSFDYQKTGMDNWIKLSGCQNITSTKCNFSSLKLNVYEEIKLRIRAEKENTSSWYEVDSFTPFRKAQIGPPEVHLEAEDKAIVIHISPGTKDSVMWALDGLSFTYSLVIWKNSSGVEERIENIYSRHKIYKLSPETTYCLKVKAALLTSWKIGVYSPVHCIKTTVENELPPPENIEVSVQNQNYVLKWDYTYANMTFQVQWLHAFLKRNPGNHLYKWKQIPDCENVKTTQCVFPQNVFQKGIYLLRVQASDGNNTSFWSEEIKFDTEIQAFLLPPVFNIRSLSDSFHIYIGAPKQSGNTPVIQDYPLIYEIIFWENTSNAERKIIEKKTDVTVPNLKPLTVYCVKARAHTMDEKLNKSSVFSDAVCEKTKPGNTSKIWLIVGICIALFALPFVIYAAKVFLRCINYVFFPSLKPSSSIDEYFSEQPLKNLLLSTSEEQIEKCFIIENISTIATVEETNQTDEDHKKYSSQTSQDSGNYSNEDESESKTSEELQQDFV
T1 sequence 2: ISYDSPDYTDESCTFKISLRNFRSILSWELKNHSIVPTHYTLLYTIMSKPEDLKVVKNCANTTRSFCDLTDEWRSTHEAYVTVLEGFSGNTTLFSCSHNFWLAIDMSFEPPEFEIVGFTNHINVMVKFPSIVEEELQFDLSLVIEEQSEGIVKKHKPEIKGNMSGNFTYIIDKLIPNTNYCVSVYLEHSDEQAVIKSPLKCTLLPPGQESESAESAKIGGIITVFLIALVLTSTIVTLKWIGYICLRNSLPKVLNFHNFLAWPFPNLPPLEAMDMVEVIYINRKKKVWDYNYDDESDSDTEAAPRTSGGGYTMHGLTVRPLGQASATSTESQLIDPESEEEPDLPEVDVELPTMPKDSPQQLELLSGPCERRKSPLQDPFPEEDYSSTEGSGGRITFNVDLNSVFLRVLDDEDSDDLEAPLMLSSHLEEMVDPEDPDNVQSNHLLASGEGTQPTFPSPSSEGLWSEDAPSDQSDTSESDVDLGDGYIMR


Legend:
[1] = target: T1, interferon receptors on Daudi cells and A549 cells (Homo sapiens (Human))
[2] = target: T1, interferon receptors on Daudi cells and A549 cells (Homo sapiens (Human)); remark: listed apart in the source

| specific activity in the Cytopathic Effect (CPE) assay for antiviral activity (EMC virus) [1] | specific activity in the antiviral assay relative to recombinant wild type IFN-β [2] [fold] | Molecule |
| --- | --- | --- |
| 2e+08 units/mg | – | wild type recombinant IFN-β (ligand) |
| 4.8e+08 U/mg | 2.5 | IFN-β(phe101) (ligand, 125I label (chloramine T method) where used as the labelled ligand in the receptor binding assay; unlabelled as competitor and in the antiviral assays) MSYNLLGFLQRSSNFQCQKLLWQLNGRLEYCLKDRMNFDIPEEIKQLQQFQKEDAALTIYEMLQNIFAIFRQDSSSTGWNETIVENLLANVYHQINHLKTFLEEKLEKEDFTRGKLMSSLHLKRYYGRILHYLKAKEYSHCAWTIVRVEILRNFYFINRLTGYLRN |
